Measured values as given in the supplement of paper PMC9732359.
± gives the uncertainty stated by the source.

Experiment: protein stability index of a GFP-peptide fusion (yeast GPS) (PSI 1-4); higher = more stable; sorted into four equal gates, so the index is relative within each strain
How it was run: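 The protein stability index of a peptide was calculated by multiplying its read frequency in each gate by that gate's number and adding the products. The peptides were tiled 17-residue stretches of yeast proteins, fused downstream of GFP on a Cherry-expressing plasmid and carried in yeast as a pooled library. Mid-log cultures in leucine-free medium were sorted into four equal gates by GFP/Cherry ratio, and each gate's plasmids were PCR-amplified and Illumina-sequenced.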

ATPGRLIDSLENHLLVM [PRP28]
protein stability index (doa10∆): 2.66 ± 0.067
protein stability index (pdr5∆): 2.37 ± 0.05
protein stability index (san1∆): 2.06 ± 0.11
protein stability index (ubr1∆): 2.1 ± 0.06

LVDQGFNYSGKDMLYSG [RET1]
protein stability index (doa10∆): 3.46 ± 0.084
protein stability index (pdr5∆): 3.29 ± 0.083
protein stability index (san1∆): 3.36 ± 0.052
protein stability index (ubr1∆): 3.52 ± 0.044

DKETQLKKRAVSGVELR [POP7]
protein stability index (doa10∆): 2.7 ± 0.21
protein stability index (pdr5∆): 2.57 ± 0.26
protein stability index (san1∆): 2.36 ± 0.18
protein stability index (ubr1∆): 2.27 ± 0.25

DFQIDGNIFELLSDTFE [RRI2]
protein stability index (doa10∆): 2.04 ± 0.095
protein stability index (pdr5∆): 2.47 ± 0.077
protein stability index (san1∆): 2.95 ± 0.11
protein stability index (ubr1∆): 3.16 ± 0.17

KTLNLFKQIKSADCELL [RPO31]
protein stability index (doa10∆): 1.22 ± 0.21
protein stability index (pdr5∆): 1.06 ± 0.035
protein stability index (san1∆): 1.23 ± 0.29
protein stability index (ubr1∆): 1.05 ± 0.094

VVVIDGKGHLVGRLASV [RPL16A]
protein stability index (doa10∆): 1.66 ± 0.065
protein stability index (pdr5∆): 1.64 ± 0.054
protein stability index (san1∆): 1.71 ± 0.1
protein stability index (ubr1∆): 1.97 ± 0.052

LPQSEWKAPSSIVLDSE [DIS3]
protein stability index (doa10∆): 3 ± 0.062
protein stability index (pdr5∆): 3.34 ± 0.069
protein stability index (san1∆): 3.14 ± 0.052
protein stability index (ubr1∆): 3.15 ± 0.05

DNDRFNVVGKLISIISS [YML103C/NUP188]
protein stability index (doa10∆): 1.3 ± 0.064
protein stability index (pdr5∆): 1.24 ± 0.073
protein stability index (san1∆): 1.21 ± 0.081
protein stability index (ubr1∆): 1.2 ± 0.047

IVQFTYGGDGLDPLEME [RPO31]
protein stability index (pdr5∆): 3.09 ± 0.2
protein stability index (san1∆): 2.55 ± 0.27

ENDIEIKGPEFKFSGTV [YLR335W/NUP2]
protein stability index (doa10∆): 2.72 ± 0.14
protein stability index (pdr5∆): 3.04 ± 0.12
protein stability index (san1∆): 3.07 ± 0.15

KVLARQQLQVLARYLKM [FAS2]
protein stability index (doa10∆): 1.41 ± 0.081
protein stability index (pdr5∆): 1.47 ± 0.083
protein stability index (san1∆): 1.75 ± 0.15
protein stability index (ubr1∆): 2.1 ± 0.12

LVGSEIYEKLKNYLKNY [CDC53]
protein stability index (pdr5∆): 1.21 ± 0.12
protein stability index (san1∆): 1.09 ± 0.16

NTLRMKHGTYDKLDDDG [RPB2]
protein stability index (doa10∆): 2.77 ± 0.077
protein stability index (pdr5∆): 2.83 ± 0.061
protein stability index (san1∆): 2.83 ± 0.063
protein stability index (ubr1∆): 2.89 ± 0.045

VKEQTEAAKKSEKKAKK [RPL34A]
protein stability index (doa10∆): 3.36 ± 0.13
protein stability index (pdr5∆): 3.48 ± 0.094
protein stability index (san1∆): 3.18 ± 0.038
protein stability index (ubr1∆): 3.31 ± 0.067

RNQRKGAGSIFTSHTRL [RPL2A]
protein stability index (doa10∆): 2.03 ± 0.054
protein stability index (pdr5∆): 3.12 ± 0.067
protein stability index (san1∆): 2.73 ± 0.05
protein stability index (ubr1∆): 3.09 ± 0.059

AEFKKRKIEAETRNGKV [YCS4]
protein stability index (doa10∆): 2.82 ± 0.1
protein stability index (pdr5∆): 3.18 ± 0.072
protein stability index (san1∆): 3.18 ± 0.1
protein stability index (ubr1∆): 3.13 ± 0.094

TQVFNILLQHKEKLTVQ [POP1]
protein stability index (doa10∆): 3.1 ± 0.084
protein stability index (pdr5∆): 3.11 ± 0.066
protein stability index (san1∆): 3.13 ± 0.058
protein stability index (ubr1∆): 2.94 ± 0.036

FNQEGDYNFKYGIPLEF [PRP8]
protein stability index (doa10∆): 3.14 ± 0.084
protein stability index (pdr5∆): 3.11 ± 0.077
protein stability index (san1∆): 1.92 ± 0.076
protein stability index (ubr1∆): 3.37 ± 0.077

TRSWRPPQAGDRSLADD [RPB8]
protein stability index (doa10∆): 3.1 ± 0.11
protein stability index (pdr5∆): 3.09 ± 0.16
protein stability index (san1∆): 3.32 ± 0.13
protein stability index (ubr1∆): 3.21 ± 0.11

TPNFDDVLKENNDADKG [RIP1]
protein stability index (doa10∆): 1.51 ± 0.093
protein stability index (pdr5∆): 1.35 ± 0.12
protein stability index (san1∆): 1.29 ± 0.15
protein stability index (ubr1∆): 1.76 ± 0.092

QELAKSIRSRRPYQVNV [PRE1]
protein stability index (doa10∆): 2.92 ± 0.14
protein stability index (pdr5∆): 2.88 ± 0.078
protein stability index (san1∆): 3.2 ± 0.14
protein stability index (ubr1∆): 3.16 ± 0.078

YIEEKHPTIYESLPQYV [POP4]
protein stability index (doa10∆): 2.33 ± 0.044
protein stability index (pdr5∆): 2.39 ± 0.048
protein stability index (san1∆): 1.91 ± 0.052
protein stability index (ubr1∆): 2.06 ± 0.045

NGQRSNSIRAREVENSV [SMC1]
protein stability index (doa10∆): 3.31 ± 0.075
protein stability index (pdr5∆): 3.37 ± 0.058
protein stability index (san1∆): 3.36 ± 0.048
protein stability index (ubr1∆): 3.19 ± 0.072

ASLHSKELTRIPGEEVE [MED4]
protein stability index (doa10∆): 2.97 ± 0.12
protein stability index (pdr5∆): 3.29 ± 0.18
protein stability index (san1∆): 3.03 ± 0.12

QNPLPTRFEVELEFIQS [SOH1]
protein stability index (doa10∆): 2.38 ± 0.083
protein stability index (pdr5∆): 2.39 ± 0.073
protein stability index (san1∆): 2.29 ± 0.084
protein stability index (ubr1∆): 2.83 ± 0.078

VGLVSPSFMLKHHQLFY [RPN1]
protein stability index (doa10∆): 1.64 ± 0.079
protein stability index (pdr5∆): 1.7 ± 0.083
protein stability index (san1∆): 1.32 ± 0.16
protein stability index (ubr1∆): 1.4 ± 0.062

VELHGKRKLDIGKDTFV [PRP8]
protein stability index (doa10∆): 3.26 ± 0.29
protein stability index (pdr5∆): 2.94 ± 0.13
protein stability index (san1∆): 2.47 ± 0.17
protein stability index (ubr1∆): 2.21 ± 0.11

HNLHPQIGQVPLAPAPI [SNF5]
protein stability index (doa10∆): 2.54 ± 0.062
protein stability index (pdr5∆): 2.23 ± 0.065
protein stability index (san1∆): 2.56 ± 0.059
protein stability index (ubr1∆): 2.76 ± 0.063

TPKGNESEQELSLHTGF [MTR3]
protein stability index (doa10∆): 3.22 ± 0.11
protein stability index (pdr5∆): 3.13 ± 0.1
protein stability index (san1∆): 3.18 ± 0.12
protein stability index (ubr1∆): 3.17 ± 0.061

RYEEFADKVKLGRVRNH [RPC40]
protein stability index (doa10∆): 2.93 ± 0.064
protein stability index (pdr5∆): 2.99 ± 0.074
protein stability index (san1∆): 3 ± 0.068
protein stability index (ubr1∆): 2.96 ± 0.056

KDSSLNYSSESYRNAFT [YJL039C/NUP192]
protein stability index (doa10∆): 2.89 ± 0.06
protein stability index (pdr5∆): 2.32 ± 0.064
protein stability index (san1∆): 2.02 ± 0.069
protein stability index (ubr1∆): 2.85 ± 0.047

EFQPSGNVTELYGTAIG [PRE5]
protein stability index (doa10∆): 2.15 ± 0.069
protein stability index (pdr5∆): 2.8 ± 0.07
protein stability index (san1∆): 1.98 ± 0.067
protein stability index (ubr1∆): 1.57 ± 0.041

VINPQQLLKGLSLSFSK [DSN1]
protein stability index (doa10∆): 3.2 ± 0.11
protein stability index (pdr5∆): 3.1 ± 0.089
protein stability index (san1∆): 2.54 ± 0.086
protein stability index (ubr1∆): 3.12 ± 0.1

YLKKREAGEVKDDGAFV [RPL10]
protein stability index (doa10∆): 3.16 ± 0.11
protein stability index (pdr5∆): 2.8 ± 0.2
protein stability index (san1∆): 3.37 ± 0.044
protein stability index (ubr1∆): 3.27 ± 0.1

LDRIPMHSYFIFKDLVT [COB]
protein stability index (doa10∆): 1.92 ± 0.11
protein stability index (pdr5∆): 1.91 ± 0.12
protein stability index (san1∆): 1.88 ± 0.12
protein stability index (ubr1∆): 1.67 ± 0.069

ISSRTFGQRAVLKFAAH [RPS0A]
protein stability index (doa10∆): 2.35 ± 0.095
protein stability index (pdr5∆): 2.57 ± 0.098
protein stability index (san1∆): 2.69 ± 0.089
protein stability index (ubr1∆): 2.49 ± 0.11

YSRISKLKQLLDESSEQ [YIL149C/MLP2]
protein stability index (doa10∆): 2.25 ± 0.077
protein stability index (pdr5∆): 2.67 ± 0.088
protein stability index (san1∆): 1.73 ± 0.14
protein stability index (ubr1∆): 2.4 ± 0.053

RAIPFRRFNSSIGRTAQ [RPL17A]
protein stability index (doa10∆): 2.91 ± 0.07
protein stability index (pdr5∆): 2.87 ± 0.08
protein stability index (san1∆): 2.89 ± 0.097
protein stability index (ubr1∆): 2.68 ± 0.06

TPGEVASKAIVQMAKIL [MCD1]
protein stability index (doa10∆): 3.26 ± 0.14
protein stability index (pdr5∆): 3 ± 0.11

IDREGNARKVVGASVVV [RPS12]
protein stability index (doa10∆): 2.65 ± 0.18
protein stability index (pdr5∆): 2.75 ± 0.25
protein stability index (ubr1∆): 3.31 ± 0.22

LPRKEVDDVLGGGWDNV [RPC11]
protein stability index (doa10∆): 3.17 ± 0.1
protein stability index (pdr5∆): 3.63 ± 0.14
protein stability index (san1∆): 3.26 ± 0.066
protein stability index (ubr1∆): 3.32 ± 0.099

NANTIETAKMIENMTKE [FAS2]
protein stability index (doa10∆): 2.72 ± 0.073
protein stability index (pdr5∆): 3.35 ± 0.078
protein stability index (san1∆): 2.97 ± 0.065
protein stability index (ubr1∆): 3.35 ± 0.095

VTYTEHAKRKTVTSLDV [HHF1]
protein stability index (doa10∆): 3.25 ± 0.23
protein stability index (ubr1∆): 2.68 ± 0.095

FPNGFKNFENGPKKNVF [RPC34]
protein stability index (doa10∆): 3.26 ± 0.083
protein stability index (pdr5∆): 3.27 ± 0.082
protein stability index (san1∆): 3.21 ± 0.062
protein stability index (ubr1∆): 3.44 ± 0.045

LIGSIRFPTKFVTQFRH [RET1]
protein stability index (doa10∆): 1.57 ± 0.056
protein stability index (pdr5∆): 1.41 ± 0.057
protein stability index (san1∆): 1.29 ± 0.16
protein stability index (ubr1∆): 1.31 ± 0.048

PASKQGYLITPPKHTEL [SSN2]
protein stability index (pdr5∆): 3.31 ± 0.3
protein stability index (san1∆): 2.49 ± 0.17

FVTQFRHLRRTGKVSEF [RET1]
protein stability index (doa10∆): 3.15 ± 0.24
protein stability index (pdr5∆): 2.5 ± 0.17
protein stability index (san1∆): 3.07 ± 0.093
protein stability index (ubr1∆): 2.41 ± 0.075

GKKRFRVVTVDGKLIDI [SMC4]
protein stability index (pdr5∆): 3.49 ± 0.14
protein stability index (san1∆): 3.31 ± 0.076
protein stability index (ubr1∆): 3.55 ± 0.18

LVYDVKGRFAVHRITDE [RPS4A]
protein stability index (doa10∆): 3.25 ± 0.078
protein stability index (pdr5∆): 3.08 ± 0.11
protein stability index (san1∆): 3.46 ± 0.07
protein stability index (ubr1∆): 3.29 ± 0.068

SKRGNDKKHFNNKNKRV [RPC53]
protein stability index (doa10∆): 3.17 ± 0.14
protein stability index (pdr5∆): 2.7 ± 0.11
protein stability index (san1∆): 3.09 ± 0.14
protein stability index (ubr1∆): 2.05 ± 0.09

KIDLASGKITDFIKFDA [RPS4A]
protein stability index (doa10∆): 3.26 ± 0.072
protein stability index (pdr5∆): 3.21 ± 0.078
protein stability index (san1∆): 3.13 ± 0.07
protein stability index (ubr1∆): 3.35 ± 0.082

NLSQENDNEGKHISASI [YAR002W/NUP60]
protein stability index (doa10∆): 3.04 ± 0.075
protein stability index (pdr5∆): 3.34 ± 0.06
protein stability index (san1∆): 3.13 ± 0.054
protein stability index (ubr1∆): 3.12 ± 0.044

VRRLEAQRNALNDKVRF [RPT6]
protein stability index (doa10∆): 2.63 ± 0.1
protein stability index (pdr5∆): 2.96 ± 0.089
protein stability index (san1∆): 2.77 ± 0.13
protein stability index (ubr1∆): 2.7 ± 0.045
